The source of these data is patent US20200148741A1.

The target in assay [1] is T1, recombinant staphylococcal enterotoxin B (SEB), mature protein with N-terminal His6-tag (Staphylococcus aureus COL), P01552.
T1 chain: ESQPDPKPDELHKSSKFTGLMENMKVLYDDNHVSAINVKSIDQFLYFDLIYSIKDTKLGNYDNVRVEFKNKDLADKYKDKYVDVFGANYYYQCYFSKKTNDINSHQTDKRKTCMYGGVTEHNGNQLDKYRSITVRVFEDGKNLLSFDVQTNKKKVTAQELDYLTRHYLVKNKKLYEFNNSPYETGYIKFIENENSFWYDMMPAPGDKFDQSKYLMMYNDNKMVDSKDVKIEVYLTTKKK

Assay [2] addresses T2, recombinant toxic shock syndrome toxin-1 (TSST-1), mature protein with N-terminal His6-tag (Staphylococcus aureus), P06886.
T2 chain: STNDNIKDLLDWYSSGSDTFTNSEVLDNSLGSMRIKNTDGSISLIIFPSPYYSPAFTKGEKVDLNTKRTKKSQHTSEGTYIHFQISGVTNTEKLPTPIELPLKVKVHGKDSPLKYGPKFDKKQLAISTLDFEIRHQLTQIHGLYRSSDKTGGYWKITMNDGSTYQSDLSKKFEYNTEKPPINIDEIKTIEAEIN

As to DSDSWTLR (modifications not checked) [pB2-6, immobilized for Surface Plasmon Resonance], in assay [1], the Kd – broadly, the free concentration of one partner at which half of the binding sites on the other are occupied at equilibrium, for simple one-to-one binding – is 3900 nM; the koff (as a rule, the rate constant with which the complex falls apart) is 0.0019 s⁻¹; the kon – broadly, the rate constant with which the complex forms – was found to be 491 M⁻¹ s⁻¹. In assay [2], the Kd was 1200 nM, the koff was 0.00304 s⁻¹ and the kon worked out at 2530 M⁻¹ s⁻¹.
